The values below come from publication PMC3078644.

The target in the assay is Sortilin (immobilised for SPR) (UniProt Q99523). As to the kind of experiment: SPR.

Usually Kd stands for the concentration at which binding is half-saturated. A high value points to weaker binding.

Sequence of Sortilin (immobilised for SPR) (P20783 whole entry): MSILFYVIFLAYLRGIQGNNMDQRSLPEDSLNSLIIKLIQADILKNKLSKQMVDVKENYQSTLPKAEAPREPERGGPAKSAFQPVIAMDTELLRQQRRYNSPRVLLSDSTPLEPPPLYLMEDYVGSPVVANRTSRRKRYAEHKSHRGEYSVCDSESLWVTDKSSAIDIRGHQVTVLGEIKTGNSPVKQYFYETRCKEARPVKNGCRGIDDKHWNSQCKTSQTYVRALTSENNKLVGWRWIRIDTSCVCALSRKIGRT

For the substance “GST-NT3pro (prodomain of proNT3 fused to glutathione-S-transferase) (domain or fragment; other documents disagree on this pair)”, the Kd turned out to be 20 nM.
